Patent US20210388087A1 (Chugai, published 2021)
Substitutions are numbered along the chain they refer to. Values belong to the binder of their own block, whether it stands above or below them.

Molecular target: T1, CD3 epsilon homodimer protein (UniProt P07766 23-126)
T1 construct: also called CD3 (CD3 epsilon)
Experiment: SPR, antibody over immobilised CD3e homodimer;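 further: SPR at 25 °C with CD3 epsilon homodimer amine-coupled to a CM4 sensor chip and antibody flowed over as analyte in HBS-EP+ running buffer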

T1 sequence (P07766 23-126): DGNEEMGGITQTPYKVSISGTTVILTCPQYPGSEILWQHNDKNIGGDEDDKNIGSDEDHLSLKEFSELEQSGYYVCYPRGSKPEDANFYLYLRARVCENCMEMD

KD ratio to GLS3000: 0.91
B1: CE115HA000/GLS3000 Q90E (antibody, IgG1, name in Kabat numbering, V domains shown)
VH: QVQLVESGGGVVQPGRSLRLSCAASGFTFSNAWMHWVRQAPGKGLEWVAQIKAKSNNYATYYAESVKGRFTISRDDSKNSLYLQMNSLKTEDTAVYYCRYVHYGAYYGVDAWGQGTTVTVSS
VL: DIVMTQSPLSLPVTPGEPASISCRSSQSLVHSNRNTYLHWYQQKPGQAPRLLIYKVSNRFSGVPDRFSGSGSGTDFTLKISRVEAEDVGVYYCGEGTQVPYTFGQGTKLEIK
notes: one-arm IgG1

KD ratio to GLS3000: 38.3
B2: CE115HA000/GLS3000 Q90Y (antibody, IgG1, name in Kabat numbering, V domains shown)
VH: B1 VH
VL: B1 VL with E95Y
notes: one-arm IgG1

KD ratio to GLS3000: 0.97
B3: CE115HA000/GLS3000 R24S (antibody, IgG1, name in Kabat numbering, V domains shown)
VH: B1 VH
VL: B1 VL with R24S, E95Q
notes: one-arm IgG1

KD ratio to GLS3000: 1
B4: CE115HA000/GLS3000 R24A (antibody, IgG1, name in Kabat numbering, V domains shown)
VH: B1 VH
VL: B1 VL with R24A, E95Q
notes: one-arm IgG1

KD ratio to GLS3000: 0.34
B5: CE115HA000/GLS3000 R24P (antibody, IgG1, name in Kabat numbering, V domains shown)
VH: B1 VH
VL: B1 VL with R24P, E95Q
notes: one-arm IgG1

KD ratio to GLS3000: 15.9
B6: CE115HA000/GLS3000 Q90P (antibody, IgG1, name in Kabat numbering, V domains shown)
VH: B1 VH
VL: B1 VL with E95P
notes: one-arm IgG1

KD ratio to GLS3000: 0.75
B7: CE115HA000/GLS3000 Q93S (antibody, IgG1, name in Kabat numbering, V domains shown)
VH: B1 VH
VL: B1 VL with E95Q, Q98S
notes: one-arm IgG1

KD ratio to GLS3000: 0.92
B8: CE115HA000/GLS3000 R24G (antibody, IgG1, name in Kabat numbering, V domains shown)
VH: B1 VH
VL: B1 VL with R24G, E95Q
notes: one-arm IgG1

KD ratio to GLS3000: 0.76
B9: CE115HA000/GLS3000 Q93Y (antibody, IgG1, name in Kabat numbering, V domains shown)
VH: B1 VH
VL: B1 VL with E95Q, Q98Y
notes: one-arm IgG1

KD ratio to GLS3000: 0.96
B10: CE115HA000/GLS3000 Q90S (antibody, IgG1, name in Kabat numbering, V domains shown)
VH: B1 VH
VL: B1 VL with E95S
notes: one-arm IgG1

KD ratio to GLS3000: 0.79
B11: CE115HA000/GLS3000 Q93R (antibody, IgG1, name in Kabat numbering, V domains shown)
VH: B1 VH
VL: B1 VL with E95Q, Q98R
notes: one-arm IgG1

KD ratio to GLS3000: 0.72
B12: CE115HA000/GLS3000 Q93D (antibody, IgG1, name in Kabat numbering, V domains shown)
VH: B1 VH
VL: B1 VL with E95Q, Q98D
notes: one-arm IgG1

KD ratio to GLS3000: 0.89
B13: CE115HA000/GLS3000 R24E (antibody, IgG1, name in Kabat numbering, V domains shown)
VH: B1 VH
VL: B1 VL with R24E, E95Q
notes: one-arm IgG1

KD ratio to GLS3000: 0.83
B14: CE115HA000/GLS3000 R24D (antibody, IgG1, name in Kabat numbering, V domains shown)
VH: B1 VH
VL: B1 VL with R24D, E95Q
notes: one-arm IgG1

KD ratio to GLS3000: 1.05
B15: CE115HA000/GLS3000 Q93E (antibody, IgG1, name in Kabat numbering, V domains shown)
VH: B1 VH
VL: B1 VL with E95Q, Q98E
notes: one-arm IgG1

KD ratio to GLS3000: 0.87
B16: CE115HA000/GLS3000 R24Q (antibody, IgG1, name in Kabat numbering, V domains shown)
VH: B1 VH
VL: B1 VL with R24Q, E95Q
notes: one-arm IgG1

KD ratio to GLS3000: 0.65
B17: CE115HA000/GLS3000 Q93A (antibody, IgG1, name in Kabat numbering, V domains shown)
VH: B1 VH
VL: B1 VL with E95Q, Q98A
notes: one-arm IgG1

KD ratio to GLS3000: 39.5
B18: CE115HA000/GLS3000 Q93P (antibody, IgG1, name in Kabat numbering, V domains shown)
VH: B1 VH
VL: B1 VL with E95Q, Q98P
notes: one-arm IgG1
